Legend:
[1] = system: IL-6 trans-signaling; settings: exogenous administration, mouse model of CAC; cited from earlier work
[2] = system: DSS-induced colitis; experiment: Oral recombinant IL-6 during DSS-induced colitis in EGFR mutant mice; assay type: in vivo, mouse; settings: for DSS-induced weight loss: IL-6 orally during DSS, FIG. 17B; for epithelial proliferation during colitis (BrdU): FIGS. 18A, 26A
Protocol: Colitis was induced by administering 2.5% dextran sulfate sodium salt (DSS) (MP Biomedicals, 0216011080) in autoclaved drinking water for 5 d followed by 5 d of normal water (Chalaris, A. et al., 2010). Colon tumors in mice were induced as previously described (Wirtz, S. et al., 2007; Tanaka, T. et al., 2003). Briefly, mice were injected i.p. with 7.5 mg/kg azoxymethane (AOM) (Sigma-Aldrich, A5486) followed by repeated administration of DSS. 300 U recombinant mouse IL-6 (ImmunoTools GmbH, Germany) was administered by oral gavage.
Mice were injected with 10 mg/kg BrdU 2.5 hrs prior to sacrifice. The colons were extracted, flushed with ice cold PBS to remove feces, fixed overnight at 4° C. in neutral buffered 4% formaldehyde as “Swiss Rolls”, which were further dehydrated, embedded in paraffin and sectioned. Sections were stained with Haematoxylin and Eosin (Sigma), Alcian blue, Giemsa and PAS. Colitis severity and tumor stage were scored and graded by pathologists in a blinded manner according to previously described criteria (Dube, P. E. et al., 2012; Musteanu, M. et al., 2010). For immunohistochemistry, sections were dewaxed, rehydrated and boiled in Citrate buffer pH 6.1 (S1699, Dakocytomation, Glostrup, Denmark) for antigen recovery. Endogenous peroxidase was quenched by incubation with 3% H2O2 in TBS, followed by blocking with 10% goat serum in 2% BSA in TBS—0.1% Tween. Sections were then incubated overnight with antibodies against β-catenin (Cell Signaling, Danvers, Mass.; 9582), cleaved caspase 3 (Cell Signaling; 9661), lysozyme (Dako; A0099), EGFR (sc-03, Santa Cruz Biotechnology, Santa Cruz, Calif.), pTyr705-STAT3 (9145, Cell Signaling), survivin (Cell Signaling; 2808) and synaptophysin (GTX100865, GeneTex Irvine, Calif.), respectively. All sections were further treated with SignalStain® Boost (Cell Signaling; 8114) to detect bound antibody and with liquid3-Amino-9-Ethylcarbazole Chromogen/Substrate (BP 1108, ID LABS™ ON, Canada) for peroxidase staining and counterstained with Haematoxylin (HHS32, Sigma-Aldrich). For BrdU staining, sections were treated with 2 N HCl after antigen recovery, blocked as described above and incubated with anti-BrdU antibody (347580, BD Biosciences) and further with secondary antibody (Invitrogen A-11018) and counterstained with DAPI.
Intestinal barrier permeability was assessed as previously described (Chalaris, A. et al., 2010). Briefly, mice were orally gavaged with 60 mg/kg FITC-Dextran (Sigma FD4), food and water were withdrawn 4 h prior to gavage. FITC levels were determined in the serum 4 h post gavage by absorption at 488 nm using standard dilutions of FITC-Dextran as reference.

| Molecule | colitis and tumor development [1] | DSS-induced weight loss ([2]; Egfr^wa2/wa2 mice) | epithelial proliferation during colitis (BrdU) ([2]; Egfr^wa2/wa2 mice) | apoptosis (cleaved Caspase 3) ([2]; Egfr^ΔIEC mice) | apoptosis (cleaved Caspase 3) ([2]; Egfr^ΔMYL and Egfr^wa2/wa2 mice, FIGS. 18B, 26B) | pY-STAT3 nuclear localization in crypts ([2]; Egfr^ΔMYL mice during DSS treatment, FIGS. 18C, 18D) | DSS-induced weight loss ([2]; Egfr^ΔMYL mice) | number of ulcers ([2]; Egfr^ΔMYL mice, FIG. 17D) | loss of epithelial barrier function (FITC-dextran in serum) ([2]; Egfr^ΔMYL mice, FIG. 17E) | epithelial proliferation during colitis (BrdU) ([2]; Egfr^ΔMYL mice) |
| --- | --- | --- | --- | --- | --- | --- | --- | --- | --- | --- |
| gp130: glycoprotein-130, exogenously administered to inhibit IL-6 trans-signaling (protein, UniProt P40189 23-918, looked up) Interleukin-6 receptor …: ELLDPCGYISPESPVVQLHSNFTAVCVLKEKCMDYFHVNANYIVWKTNHFTIPKEQYTIINRTASSVTFTDIASLNIQLTCNILTFGQLEQNVYGITIISGLPPEKPKNLSCIVNEGKKMRCEWDGGRETHLETNFTLKSEWATHKFADCKAKRDTPTSCTVDYSTVYFVNIEVWVEAENALGKVTSDHINFDPVYKVKPNPPHNLSVINSEELSSILKLTWTNPSIKSVIILKYNIQYRTKDASTWSQIPPEDTASTRSSFTVQDLKPFTEYVFRIRCMKEDGKGYWSDWSEEASGITYEDRPSKAPSFWYKIDPSHTQGYRTVQLVWKTLPPFEANGKILDYEVTLTRWKSHLQNYTVNATKLTVNLTNDRYLATLTVRNLVGKSDAAVLTIPACDFQATHPVMDLKAFPKDNMLWVEWTTPRESVKKYILEWCVLSDKAPCITDWQQEDGTVHRTYLRGNLAESKCYLITVTPVYADGPGSPESIKAYLKQAPPSKGPTVRTKKVGKNEAVLEWDQLPVDVQNGFIRNYTIFYRTIIGNETAVNVDSSHTEYTLSSLTSDTLYMVRMAAYTDEGGKDGPEFTFTTPKFAQGEIEAIVVPVCLAFLLTTLLGVLFCFNKRDLIKKHIWPNVPDPSKSHIAQWSPHTPPRHNFNSKDQMYSDGNFTDVSVVEIEANDKKPFPEDLKSLDLFKKEKINTEGHSSGIGGSSCMSSSRPSISSSDENESSQNTSSTVQYSTVVHSGYRHQVPSVQVFSRSESTQPLLDSEERPEDLQLVDHVDGGDGILPRQQYFKQNCSQHESSPDISHFERSKQVSSVNEEDFVRLKQQISDHISQSCGSGQMKMFQEVSAADAFGPGTEGQVERFETVGMEAATDEGMPKSYLPQTVRQGGYMPQ | substantial decrease |  |  |  |  |  |  |  |  |  |
| IL-6: recombinant mouse IL-6 administered by oral gavage (protein, UniProt P08505 25-211, looked up) Interleukin-6: FPTSQVRRGDFTEDTTPNRPVYTTSQVGGLITHVLWEIVEMRKELCNGNSDCMNNDDALAENNLKLPEIQRNDGCYQTGYNQEICLLKISSGLLEYHSYLEYMKNNLKDNKKDKARVLQRDTETLIHIFNQEVKDLHKIVLPTPISNALLTDKLESQKEWLRTKTIQFILKSLEEFLKVTLRSTRQT |  | partially rescued | partially | decreased | not affected | fully restored | able to protect | decreased | protected | fully |
